Source: the supplement of paper PMC9112550, “Optimization of the antimicrobial peptide Bac7 by deep mutational scanning” (BMC Biology, 2022)

Test system: Escherichia coli TOP10
Assay: shrunken log2 fold change of peptide-encoding DNA abundance (4.5 h post-induction vs induction); higher = less antimicrobial activity (less host growth inhibition)
Details: time post-induction: 4.5 h; library: site-saturation at positions 5, 18, 19, 20
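Also: peptides expressed intracellularly from a pBAD plasmid library in pooled LB shake-flask culture, induced with 0.3% L-arabinose, DNA abundance read by NGS, three biological replicates, DESeq2 with apeglm shrinkage.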

Row | Sequence | shrunken log2 fold change
1 | RRIRNRPPRLPRPRPRPNILPRP | -0.0518
2 | RRIRTRPPRLPRPRPRPKVIPRP | -0.503
3 | RRIRQRPPRLPRPRPRPRQHPRP | -0.141
4 | RRIRQRPPRLPRPRPRPGFNPRP | -0.119
5 | RRIRCRPPRLPRPRPRPNQCPRP | 2.64
6 | RRIRNRPPRLPRPRPRPQGIPRP | -0.216
7 | RRIRRRPPRLPRPRPRPKTAPRP | 0.707
8 | RRIRNRPPRLPRPRPRPTKWPRP | -0.2
9 | RRIRKRPPRLPRPRPRPGMMPRP | 0.308
10 | RRIRSRPPRLPRPRPRPFMIPRP | -0.184
11 | RRIRTRPPRLPRPRPRPIGVPRP | -0.0262
12 | RRIRLRPPRLPRPRPRPHCPPRP | 0.0666
13 | RRIRGRPPRLPRPRPRPTNEPRP | 0.46
14 | RRIRVRPPRLPRPRPRPQAGPRP | 0.0465
15 | RRIRFRPPRLPRPRPRPKTCPRP | 0.0353
16 | RRIRARPPRLPRPRPRPHCTPRP | 1.18
17 | RRIRLRPPRLPRPRPRPQTVPRP | -0.211
18 | RRIRERPPRLPRPRPRPFVYPRP | -0.123
19 | RRIRHRPPRLPRPRPRPNQRPRP | 0.333
20 | RRIRSRPPRLPRPRPRPHIWPRP | -0.442
21 | RRIRHRPPRLPRPRPRPTGYPRP | -0.0185
22 | RRIRNRPPRLPRPRPRPENIPRP | -0.435
23 | RRIRTRPPRLPRPRPRPEKLPRP | -0.0188
24 | RRIRFRPPRLPRPRPRPAEVPRP | -0.127
25 | RRIRQRPPRLPRPRPRPFGWPRP | -0.0154

Row | Sequence | shrunken log2 fold change
26 | RRIRIRPPRLPRPRPRPPTTPRP | 0.0744
27 | RRIRNRPPRLPRPRPRPVENPRP | -0.0754
28 | RRIRHRPPRLPRPRPRPVEWPRP | 0.123
29 | RRIRLRPPRLPRPRPRPKCYPRP | -0.414
30 | RRIRARPPRLPRPRPRPLANPRP | 0.255
31 | RRIRRRPPRLPRPRPRPYTVPRP | -0.325
32 | RRIRGRPPRLPRPRPRPWGKPRP | -0.0896
33 | RRIRKRPPRLPRPRPRPRKFPRP | 0.106
34 | RRIRFRPPRLPRPRPRPKGRPRP | -0.0884
35 | RRIRFRPPRLPRPRPRPKRMPRP | 0.133
36 | RRIRCRPPRLPRPRPRPKINPRP | -0.645
37 | RRIRIRPPRLPRPRPRPMSFPRP | -0.178
38 | RRIRWRPPRLPRPRPRPLTEPRP | 0.251
39 | RRIRHRPPRLPRPRPRPYQGPRP | -0.00674
40 | RRIRNRPPRLPRPRPRPIEYPRP | -0.0134
41 | RRIRCRPPRLPRPRPRPHPSPRP | -0.00515
42 | RRIRIRPPRLPRPRPRPYKIPRP | -0.688
43 | RRIRSRPPRLPRPRPRPPGVPRP | 0.293
44 | RRIRWRPPRLPRPRPRPHSRPRP | 0.194
45 | RRIRVRPPRLPRPRPRPTCEPRP | 0.243
46 | RRIRERPPRLPRPRPRPHGHPRP | 0.0257
47 | RRIRWRPPRLPRPRPRPNMRPRP | 0.0208
48 | RRIRNRPPRLPRPRPRPNPAPRP | 0.028
49 | RRIRVRPPRLPRPRPRPTHSPRP | 0.156
50 | RRIRCRPPRLPRPRPRPERFPRP | 0.00138

Row | Sequence | shrunken log2 fold change
51 | RRIRSRPPRLPRPRPRPTEWPRP | 0.00483
52 | RRIRFRPPRLPRPRPRPTNFPRP | -0.0824
53 | RRIRKRPPRLPRPRPRPAWKPRP | -0.116
54 | RRIRSRPPRLPRPRPRPGSNPRP | -0.00709
55 | RRIRARPPRLPRPRPRPYEGPRP | -0.195
56 | RRIRNRPPRLPRPRPRPPVTPRP | 0.228
57 | RRIRTRPPRLPRPRPRPQACPRP | -0.0237
58 | RRIRIRPPRLPRPRPRPVYMPRP | -0.678
59 | RRIRIRPPRLPRPRPRPFWSPRP | 0.0627
60 | RRIRMRPPRLPRPRPRPACYPRP | 0.223
61 | RRIRARPPRLPRPRPRPNNLPRP | -0.561
62 | RRIRTRPPRLPRPRPRPRSFPRP | -0.0927
63 | RRIRIRPPRLPRPRPRPNLRPRP | -0.117
64 | RRIRGRPPRLPRPRPRPRSKPRP | 0.781
65 | RRIRMRPPRLPRPRPRPIQPPRP | 0.122
66 | RRIRMRPPRLPRPRPRPMSDPRP | -0.095
67 | RRIRKRPPRLPRPRPRPNESPRP | -0.0703
68 | RRIRERPPRLPRPRPRPPQKPRP | -0.0624
69 | RRIRFRPPRLPRPRPRPFEIPRP | -0.0265
70 | RRIRGRPPRLPRPRPRPAANPRP | 0.911
71 | RRIRWRPPRLPRPRPRPWIQPRP | 0.0861
72 | RRIRLRPPRLPRPRPRPLGWPRP | 0.584
73 | RRIRWRPPRLPRPRPRPEACPRP | 1.5
74 | RRIRMRPPRLPRPRPRPPRMPRP | 0.893
75 | RRIRWRPPRLPRPRPRPWPSPRP | 0.018

Row | Sequence | shrunken log2 fold change
76 | RRIRPRPPRLPRPRPRPPCNPRP | -0.0234
77 | RRIRNRPPRLPRPRPRPPCFPRP | -0.00581
78 | RRIRERPPRLPRPRPRPQCMPRP | -0.586
79 | RRIRARPPRLPRPRPRPQQDPRP | 0.108
80 | RRIRIRPPRLPRPRPRPKFIPRP | -0.375
81 | RRIRDRPPRLPRPRPRPWVDPRP | -0.0979
82 | RRIRWRPPRLPRPRPRPAYHPRP | -0.361
83 | RRIRYRPPRLPRPRPRPGTVPRP | 0.0427
84 | RRIRMRPPRLPRPRPRPCVCPRP | -0.00811
85 | RRIRTRPPRLPRPRPRPLSEPRP | -0.127
86 | RRIRHRPPRLPRPRPRPANFPRP | -0.0325
87 | RRIRFRPPRLPRPRPRPTNGPRP | -0.137
88 | RRIRARPPRLPRPRPRPKKMPRP | -0.0239
89 | RRIRFRPPRLPRPRPRPAFNPRP | -0.367
90 | RRIRHRPPRLPRPRPRPEMHPRP | 0.0592
91 | RRIRLRPPRLPRPRPRPPSVPRP | -0.0845
92 | RRIRYRPPRLPRPRPRPFETPRP | 0.111
93 | RRIRRRPPRLPRPRPRPCLCPRP | -0.00345
94 | RRIRCRPPRLPRPRPRPIETPRP | -0.0366
95 | RRIRPRPPRLPRPRPRPNRDPRP | -0.271
96 | RRIRGRPPRLPRPRPRPDILPRP | 0.785
97 | RRIRNRPPRLPRPRPRPKRIPRP | -0.107
98 | RRIRNRPPRLPRPRPRPSCWPRP | 0.0544
99 | RRIRKRPPRLPRPRPRPEKHPRP | 0.401
100 | RRIRRRPPRLPRPRPRPFHEPRP | -0.195

Row | Sequence | shrunken log2 fold change
101 | RRIRMRPPRLPRPRPRPLYRPRP | -0.0998
102 | RRIRYRPPRLPRPRPRPNIKPRP | -1.13
103 | RRIRYRPPRLPRPRPRPECMPRP | -0.417
104 | RRIRVRPPRLPRPRPRPRWPPRP | 0.534
105 | RRIRRRPPRLPRPRPRPAWWPRP | 1.01
106 | RRIRDRPPRLPRPRPRPGWSPRP | 0.104
107 | RRIRRRPPRLPRPRPRPMCDPRP | 0.308
108 | RRIRIRPPRLPRPRPRPAFQPRP | 0.107
109 | RRIRPRPPRLPRPRPRPHDMPRP | -1.48
110 | RRIRVRPPRLPRPRPRPFHRPRP | -0.0437
111 | RRIRPRPPRLPRPRPRPNFKPRP | -0.225
112 | RRIRNRPPRLPRPRPRPKHAPRP | 0.0877
113 | RRIRFRPPRLPRPRPRPCYDPRP | -0.0301
114 | RRIRKRPPRLPRPRPRPIGPPRP | 0.0335
115 | RRIRARPPRLPRPRPRPNYSPRP | -0.502
116 | RRIRARPPRLPRPRPRPETCPRP | 0.331
117 | RRIRARPPRLPRPRPRPYRSPRP | -0.51
118 | RRIRQRPPRLPRPRPRPIIVPRP | -0.0856
119 | RRIRRRPPRLPRPRPRPFQLPRP | 0.0918
120 | RRIRERPPRLPRPRPRPAFMPRP | -0.154
121 | RRIRNRPPRLPRPRPRPSWEPRP | -0.32
122 | RRIRVRPPRLPRPRPRPVYDPRP | -0.182
123 | RRIRCRPPRLPRPRPRPCWSPRP | -0.352
124 | RRIRSRPPRLPRPRPRPYKCPRP | -0.137
125 | RRIRERPPRLPRPRPRPRPQPRP | 0.61
